Data published in the Immune Epitope Database (IEDB).

What was measured:
HLA-A*03:01 [1] = assay: IEDB peptide-MHC binding, cellular MHC/competitive/fluorescence; ≥ and ≤ were set here for values at or beyond the usual limits of such assays; conditions: source organism: Hepatitis B virus
HLA-A*31:01 [2] = assay: as above; conditions: source organism: Hepatitis B virus
HLA-A*68:02 [3] = assay: as above
HLA-A*68:01 = assay: as above; conditions: source organism: Hepatitis B virus
HLA-A*11:01 = assay: as above; conditions: source organism: Hepatitis B virus
HLA-A*02:03 [4] = assay: IEDB peptide-MHC binding, purified MHC/competitive/radioactivity; ≥ and ≤ were set here for values at or beyond the usual limits of such assays
HLA-A*02:02 [5] = assay: as above
HLA-A*02:01 [6] = assay: as above
HLA-A*02:06 = assay: as above
HLA-A*68:02 [7] = assay: as above; conditions: source organism: Hepatitis B virus
HLA-A*02:03 [8] = assay: IEDB peptide-MHC binding, cellular MHC/competitive/fluorescence; ≥ and ≤ were set here for values at or beyond the usual limits of such assays; conditions: source organism: Hepatitis B virus
HLA-A*03:01 [9] = assay: IEDB peptide-MHC binding, purified MHC/competitive/radioactivity; ≥ and ≤ were set here for values at or beyond the usual limits of such assays; conditions: source organism: Hepatitis B virus
HLA-A*31:01 [10] = assay: as above
HLA-A*02:02 [11] = assay: IEDB peptide-MHC binding, cellular MHC/competitive/fluorescence; ≥ and ≤ were set here for values at or beyond the usual limits of such assays; conditions: source organism: Hepatitis B virus
HLA-A*02:01 [12] = assay: as above; conditions: source organism: Hepatitis B virus
[13] = source organism: Hepatitis B virus
[14] = source organism: Vaccinia virus WR

Sequence | IC50 (HLA-A*03:01 [1]) | IC50 (HLA-A*31:01 [2]) | IC50 (HLA-A*68:02 [3]; [13]) | IC50 (HLA-A*68:01) | IC50 (HLA-A*11:01) | IC50 (HLA-A*02:03 [4]; [13]) | IC50 (HLA-A*02:02 [5]; [13]) | IC50 (HLA-A*02:01 [6]; [13]) | IC50 (HLA-A*02:06; [13]) | other results
FLLTRILTI | ≥ 70 µM | ≥ 70 µM | 22.3 µM | ≥ 70 µM |  |  |  |  |  | 
YLVSFGVWI | 15.2 µM | ≥ 70 µM | 38.2 µM | ≥ 70 µM | ≥ 70 µM | 0.311 µM | 140 nM | 0.173 µM | 1.84 µM | 
PLLPIFFCL | ≥ 70 µM | 9.87 µM | 33.1 µM | 44.2 µM | ≥ 70 µM | 0.637 µM | 63 nM | 0.111 µM | 0.087 µM | 
FLPSDFFPSV | ≥ 70 µM | 20.1 µM |  | ≥ 70 µM |  |  |  |  |  | IC50 (HLA-A*68:02 [7]): 0.028 µM
YQGMLPVCPL | 24 µM | 11.4 µM | 5.34 µM | ≥ 70 µM | ≥ 70 µM | 0.02 µM | 35 nM | 0.543 µM | 0.165 µM | 
FLGPLLVLQA | 33.1 µM | 14.7 µM | 30.3 µM | ≥ 70 µM | 61.2 µM | 0.16 µM | 3690 nM |  | 1.37 µM | 
GLSRYVARV | 7.23 µM | 24.7 µM | 8.86 µM | ≥ 70 µM | ≥ 70 µM | 0.0015 µM | 11 nM | 0.154 µM | 1.17 µM | 
VLLDYQGML | ≥ 70 µM | 12.8 µM | ≥ 70 µM | ≥ 70 µM | 35.2 µM |  | 53 nM | 0.081 µM | 0.679 µM | IC50 (HLA-A*02:03 [8]): 22.6 µM
ILSPFLPLL |  |  |  | ≥ 70 µM |  | 0.00084 µM | 0.076 nM | 0.0014 µM | 0.00093 µM | 
FLLAQFTSAI | 11.2 µM | 16.1 µM |  | 23.6 µM | ≥ 70 µM | 0.00031 µM | 3.6 nM |  | 0.045 µM | 
FLLAQFTSA |  | 25.7 µM | 9.89 µM | ≥ 70 µM |  |  |  | 0.098 µM | 0.0087 µM | 
FLAPLPIHTA |  | ≥ 70 µM |  | 35.5 µM | 43.2 µM | 0.00028 µM | 0.049 nM | 0.0013 µM | 0.013 µM | IC50 (HLA-A*03:01 [9]): 4.09 µM; IC50 (HLA-A*68:02 [7]): 0.971 µM
ILCWGELMTL | 9.08 µM |  | 7.82 µM | 43.9 µM | ≥ 70 µM | 0.0053 µM | 6.7 nM |  | 0.007 µM | IC50 (HLA-A*31:01 [10]; [13]): 1.86 µM
ALMPLYACI | ≥ 70 µM | 50.3 µM |  | ≥ 70 µM | ≥ 70 µM |  |  |  |  | 
SLYSILSPFL | 14.3 µM | 5.67 µM | 6.67 µM | 64 µM | ≥ 70 µM | 0.013 µM | 1 nM | 0.0082 µM | 0.076 µM | 
LVPFVQWFV | ≥ 70 µM |  |  | ≥ 70 µM | 69.8 µM | 0.071 µM |  | 0.168 µM | 0.055 µM | IC50 (HLA-A*31:01 [10]; [13]): 1.82 µM; IC50 (HLA-A*68:02 [7]): 0.019 µM
WLSLLVPFV | 40.3 µM | 11.7 µM |  | ≥ 70 µM |  |  |  |  |  | 
YMDDVVLGA | 69.4 µM | ≥ 70 µM | 50.1 µM | ≥ 70 µM | ≥ 70 µM | 1.29 µM |  |  | 3.71 µM | 
KLYIALCKV |  |  |  |  |  |  |  |  |  | IC50 (HLA-A*68:02 [3]; [14]): 16.6 µM; IC50 (HLA-A*02:03 [4]; [14]): 0.0014 µM; IC50 (HLA-A*02:02 [5]; [14]): 16 nM; IC50 (HLA-A*02:01 [6]; [14]): 0.0067 µM; IC50 (HLA-A*31:01 [10]; [14]): 0.739 µM; IC50 (HLA-A*02:06; [14]): 0.097 µM
LLPIFFCLWV |  | 6.23 µM | ≥ 70 µM | 51 µM | ≥ 70 µM | 0.015 µM |  |  | 0.0023 µM | IC50 (HLA-A*03:01 [9]): 1.33 µM
GMLPVCPLI | ≥ 70 µM |  |  | ≥ 70 µM | ≥ 70 µM |  |  |  |  | 
HQLDPAFRA | ≥ 70 µM | 40.6 µM | ≥ 70 µM | ≥ 70 µM | 14.7 µM |  |  |  | 0.118 µM | IC50 (HLA-A*02:03 [8]): 55.9 µM; IC50 (HLA-A*02:02 [11]): 16 µM; IC50 (HLA-A*02:01 [12]): 6.45 µM
